Measured values published in patent US20130230533A1 (Regeneron, published 2013).

T1: Monomeric human CD48-mmH (human)
T1 chain: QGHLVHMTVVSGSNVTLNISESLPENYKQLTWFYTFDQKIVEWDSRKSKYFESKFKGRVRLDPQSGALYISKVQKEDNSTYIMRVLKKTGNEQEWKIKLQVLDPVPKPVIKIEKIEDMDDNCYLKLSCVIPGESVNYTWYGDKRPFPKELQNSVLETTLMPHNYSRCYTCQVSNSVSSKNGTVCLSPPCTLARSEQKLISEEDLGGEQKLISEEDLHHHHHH

T2: Dimeric human CD48-mFc (human)
T2 construct: the whole entry is the construct; also called hCD48-mFc
T2 chain: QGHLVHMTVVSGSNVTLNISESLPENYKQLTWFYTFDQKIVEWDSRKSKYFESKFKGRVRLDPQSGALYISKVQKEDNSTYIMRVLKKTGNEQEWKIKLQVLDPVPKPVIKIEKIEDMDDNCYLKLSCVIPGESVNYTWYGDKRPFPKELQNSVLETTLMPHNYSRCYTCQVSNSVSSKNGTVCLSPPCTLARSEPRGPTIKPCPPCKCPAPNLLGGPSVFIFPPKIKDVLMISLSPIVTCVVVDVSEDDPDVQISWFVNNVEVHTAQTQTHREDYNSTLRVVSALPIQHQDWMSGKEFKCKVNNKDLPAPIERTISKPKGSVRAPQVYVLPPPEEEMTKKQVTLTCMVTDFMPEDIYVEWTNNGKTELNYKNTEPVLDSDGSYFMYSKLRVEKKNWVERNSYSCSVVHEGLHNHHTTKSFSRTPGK

T3: Monomeric monkey CD48-mmH (monkey)
T3 construct: Soluble monkey CD48 with a myc-myc-hexa-histidine C-terminal tag; the whole entry is the construct; also called mfCD48-mmH
T3 chain: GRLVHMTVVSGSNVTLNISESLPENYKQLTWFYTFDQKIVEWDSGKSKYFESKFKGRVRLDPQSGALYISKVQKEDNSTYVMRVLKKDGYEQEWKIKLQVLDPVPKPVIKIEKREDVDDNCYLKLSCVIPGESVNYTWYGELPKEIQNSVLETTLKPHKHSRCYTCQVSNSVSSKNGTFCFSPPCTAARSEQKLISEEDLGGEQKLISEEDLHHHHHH

T4: Dimeric monkey CD48-mFc (monkey)
T4 construct: Soluble monkey CD48 with a C-terminal Fc fusion [mFc]; the whole entry is the construct
T4 chain: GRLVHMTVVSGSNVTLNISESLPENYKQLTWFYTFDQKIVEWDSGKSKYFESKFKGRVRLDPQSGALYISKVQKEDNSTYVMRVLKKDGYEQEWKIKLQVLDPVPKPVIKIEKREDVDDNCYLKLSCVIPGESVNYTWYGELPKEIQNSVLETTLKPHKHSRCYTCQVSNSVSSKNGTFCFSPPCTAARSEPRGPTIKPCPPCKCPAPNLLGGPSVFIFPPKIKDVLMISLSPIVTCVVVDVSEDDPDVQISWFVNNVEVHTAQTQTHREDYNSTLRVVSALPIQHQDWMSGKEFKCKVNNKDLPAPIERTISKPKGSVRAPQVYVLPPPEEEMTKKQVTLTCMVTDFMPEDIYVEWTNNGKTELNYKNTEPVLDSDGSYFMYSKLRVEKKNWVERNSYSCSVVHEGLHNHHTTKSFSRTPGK

T5: monomeric monkey CD48 expressed with a tag consisting of 2 myc and one 6-His epitopes (monkey)
T5 construct: also called mfCD48-mmH; Monomeric monkey CD48-mmH
T5 chain: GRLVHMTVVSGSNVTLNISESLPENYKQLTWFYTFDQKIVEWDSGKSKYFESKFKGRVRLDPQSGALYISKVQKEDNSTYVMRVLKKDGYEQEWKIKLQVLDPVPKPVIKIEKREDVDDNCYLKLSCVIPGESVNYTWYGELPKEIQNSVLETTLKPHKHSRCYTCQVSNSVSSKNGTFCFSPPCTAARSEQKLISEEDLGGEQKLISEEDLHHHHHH

T6: biotinylated dimeric human CD48 protein expressed as a fusion with mouse IgG2a Fc (human, biotinylated)
T6 construct: also called bio-hCD48-mFc; Dimeric human CD48-mFc
T6 chain: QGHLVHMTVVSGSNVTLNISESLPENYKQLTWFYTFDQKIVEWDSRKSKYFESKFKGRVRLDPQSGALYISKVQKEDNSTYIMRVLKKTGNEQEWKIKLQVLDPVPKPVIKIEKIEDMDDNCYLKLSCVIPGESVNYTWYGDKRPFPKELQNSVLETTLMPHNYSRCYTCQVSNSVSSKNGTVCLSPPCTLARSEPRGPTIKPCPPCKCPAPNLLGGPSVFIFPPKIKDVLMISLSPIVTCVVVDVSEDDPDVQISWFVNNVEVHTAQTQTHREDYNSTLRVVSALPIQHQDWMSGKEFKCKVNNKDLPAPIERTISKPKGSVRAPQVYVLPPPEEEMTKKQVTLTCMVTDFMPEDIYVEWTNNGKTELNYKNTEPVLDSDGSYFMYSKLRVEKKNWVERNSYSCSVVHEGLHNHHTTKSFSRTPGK


What was measured:
[1] = target: T1, Monomeric human CD48-mmH; assay: SPR (Biacore), antibody captured by anti-Fc, CD48 in solution, 37 C
Outline: (§1)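 Antibodies (mouse or human IgG4 Fc) captured on anti-Fc surface; soluble CD48, monomeric (myc-myc-His tag) or dimeric (Fc fusion), injected at several concentrations. ka and kd from kinetic fits; KD=kd/ka, t½=ln2/kd.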

[2] = target: T2, Dimeric human CD48-mFc; assay: as above
Outline: as §1

[3] = target: T3, Monomeric monkey CD48-mmH; assay: as above
Outline: as §1

[4] = target: T4, Dimeric monkey CD48-mFc; assay: as above
Outline: as §1

[5] = target: T3, Monomeric monkey CD48-mmH; assay: SPR (Biacore), antibody captured by anti-Fc, CD48 in solution, 25 C
Experimental: (§2) Measurements were conducted on a T100-2 BIACORE™ instrument (Biacore Life Sciences division of GE Healthcare, Piscataway, N.J.). Antibodies (either with mouse Fc [designated “H2M” or “H3M”] or human IgG4 Fc [designated “H4H”]) were captured through an anti-Fc chip surface, and CD48 was flowed over the surface either in a monomeric (soluble CD48 expressed with a myc-myc-hexa-histidine C-terminal tag [mmH]) or dimeric (soluble CD48 expressed with a C-terminal Fc fusion [mFc]) format.
(§3) The soluble CD48 was applied to the flow cell in separate injections at different concentrations, and kinetic association (kₐ) and dissociation (kd) rate constants were determined by fits to the kinetic binding data using Biacore software. Binding dissociation equilibrium constants and dissociation half-times were calculated from the kinetic rate constants as: KD=kd/kₐ; t_{1/2}=(ln 2/kd) (units: ka=M⁻¹*s⁻¹; kd=s⁻¹; KD=M; T½=min) (Tables 3-6).

[6] = target: T4, Dimeric monkey CD48-mFc; assay: as above
Experimental: as §2, §3

[7] = target: T5, monomeric monkey CD48 expressed with a …; assay: competition ELISA; blocks mfCD48-mmH binding to coated h2B4-mFc
Experimental: (§4) The ability of human anti-CD48 monoclonal antibodies to block human CD48 and monkey CD48 binding to the human cognate ligand, human 2B4, was measured using a competition sandwich ELISA (Table 8). Constant amounts of biotinylated dimeric human CD48 protein expressed as a fusion with mouse IgG2a Fc (“bio-hCD48-mFc” [SEQ ID NO: 387]) or monomeric monkey CD48 expressed with a tag consisting of 2 myc and one 6-His epitopes (“mfCD48-mmH” [SEQ ID NO: 386]) were separately titrated with varying amounts of antibodies. These antibody-protein complexes were incubated (1 hr, 25° C.) before being transferred to microtiter plates coated with a dimeric construct expressing the human 2B4 receptor fused to a either human IgG1 (h2B4-hFc [R&D Systems, Inc., Minneapolis, Minn., Cat. No. 1039-2B]) or mouse IgG2a Fc (h2B4-mFc [SEQ ID NO: 389). After a 1 hr at 25° C. the wells were washed and bound human CD48 was detected with streptavidin conjugated with horse-radish peroxidase (HRP), and monkey CD48 was detected with an HRP conjugated anti-myc polyclonal antibody. The ELISA was developed with a TMB solution to produce a colorimetric reaction and quenched with sulfuric acid before reading absorbance at 450 nm on a Victor X5 plate reader. Sigmoidal dose response curves were fit to the data using Prism™ software. […] (Tables 8 and 9, NB=no binding observed)

[8] = target: T6, biotinylated dimeric human CD48 protein …; assay: competition ELISA; blocks bio-hCD48-mFc binding to coated h2B4-mFc
Experimental: as §4

Row | Kd [1] | T½ [1] | koff [1] | kon [1] | Kd [2] | T½ [2] | koff [2] | kon [2] | Kd [3] | T½ [3] | koff [3] | kon [3] | Kd [4] | T½ [4] | koff [4] | kon [4] | Kd [5] | T½ [5] | koff [5] | kon [5] | Binder | also measured
1 | 0.448 nM | 1.9 h | 0.000101 s⁻¹ | 226000 M⁻¹ s⁻¹ | 0.0603 nM | 3.93 h | 4.89e-05 s⁻¹ | 812000 M⁻¹ s⁻¹ | 0.875 nM | 0.633 h | 0.000307 s⁻¹ | 350000 M⁻¹ s⁻¹ | 0.0755 nM | 2.92 h | 6.61e-05 s⁻¹ | 875000 M⁻¹ s⁻¹ | 0.262 nM | 2.47 h | 7.8e-05 s⁻¹ | 298000 M⁻¹ s⁻¹ | H4H1781P (antibody, human IgG4, V domains shown, Human IgG4 Fc (H4H)) VH: QVQLVESGGGVVQPGRSLRLSCAASGFTFSNYGMHWVRQAPGKGLEWVAVIWYDDSNKNYADSVKGRFTISRDNSKNTLYLQMNSLRVEDTAVYYCARDRWTYSHFFEYWGQGTLVTVSS VL: DIQMTQSPSSVSASVGDRVTITCRASQGISSWLAWYQQKPGKAPNLLIYAASSLQSGVPSRFGGSGSGTDFSLTISGLQPEDFATYYCQQANSFPRTFGQGTKVEIK | Kd [6]: 0.0356 nM; T½ [6]: 9.03 h; koff [6]: 2.13e-05 s⁻¹; kon [6]: 599000 M⁻¹ s⁻¹
2 | – | – | – | – | – | – | – | – | – | – | – | – | – | – | – | – | – | – | – | – | H4H1713N (antibody, human IgG4, V domains shown, Human IgG4 Fc (H4H) form of 1713N) VH: QVQLVQSGAEVKKPGASVKVSCKASGHTFTNYYIHWVRQAPGQGLEWMGITNPNDGNTRYAQKFQGRISMTWDTSTSTVFMELSSLKSEDTAVYYCAGLRYWFFDLWGRGTPVTVSS VL: DIQMTQSPSSVSASVGDRVTITCRASQDISSWLAWYQQKPGKAPNLLIFAASSLQSGVPSRFSGSGSGTDFTLTISSLQPEDFGTYYCQQTDNFPRTFGQGTKVEIN | IC50 [7]: 0.0034 nM; IC50 [8]: 0.018 nM
3 | 8.97 nM | 0.1 h | 0.00179 s⁻¹ | 199000 M⁻¹ s⁻¹ | 0.161 nM | 5.4 h | 3.57e-05 s⁻¹ | 221000 M⁻¹ s⁻¹ | 4.71 nM | 0.1 h | 0.00206 s⁻¹ | 437000 M⁻¹ s⁻¹ | 0.776 nM | 0.25 h | 0.000768 s⁻¹ | 990000 M⁻¹ s⁻¹ | 3.31 nM | 0.133 h | 0.00138 s⁻¹ | 416000 M⁻¹ s⁻¹ | H4H1789Pa (antibody, V domains shown, Human IgG4 Fc (H4H)) VH: EVQLLESGGGLVHPGGSLRLSCAASGFTFGGYAMSWVRQAPGKGLEWVSLISGSGGSTYYADSVKGRFTIFRDNSKNTLYLQMISLRAEDSAVYYCAKYSNYDYFDPWGQGTLVTVSS VL: not shown | Kd [6]: 0.423 nM; T½ [6]: 0.7 h; koff [6]: 0.000276 s⁻¹; kon [6]: 651000 M⁻¹ s⁻¹
